B1: hTIGIT (receptor)
chain: MMTGTIETTGNISAEKGGSIILQCHLSSTTAQVTQVNWEQQDQLLAICNADLGWHISPSFKDRVAPGPGLGLTLQSLTVNDTGEYFCIYHTYPDGTYTGRIFLEVLESSVAEHGARFQIP
Usually Kd stands for the free concentration of one partner at which half of the binding sites on the other are occupied at equilibrium, for simple one-to-one binding. Regarding B1, the Kd worked out at 15.9 nM in the assay with TIGIT55-01; 153 nM with TIGIT55-06; 97.6 nM with TIGIT55-05; 139 nM with TIGIT55-14; 327 nM with TIGIT55-11; 112 nM with TIGIT55-13.

The values are drawn from patent publication US20260184782A1 (published 2026).
